Source: publication PMC3762824

Columns and labels:
[1] = biological target: Argonaute 2 (human (endogenous in U937, U1, J1.1, HEK293T)) (UniProt Q9UKV8)
[2] = biological target: Argonaute 2 (human (endogenous in U937, U1, J1.1, HEK293T)) (UniProt Q9UKV8); remark: listed apart in the source

Sequence of UniProt Q9UKV8 (Q9UKV8 whole entry): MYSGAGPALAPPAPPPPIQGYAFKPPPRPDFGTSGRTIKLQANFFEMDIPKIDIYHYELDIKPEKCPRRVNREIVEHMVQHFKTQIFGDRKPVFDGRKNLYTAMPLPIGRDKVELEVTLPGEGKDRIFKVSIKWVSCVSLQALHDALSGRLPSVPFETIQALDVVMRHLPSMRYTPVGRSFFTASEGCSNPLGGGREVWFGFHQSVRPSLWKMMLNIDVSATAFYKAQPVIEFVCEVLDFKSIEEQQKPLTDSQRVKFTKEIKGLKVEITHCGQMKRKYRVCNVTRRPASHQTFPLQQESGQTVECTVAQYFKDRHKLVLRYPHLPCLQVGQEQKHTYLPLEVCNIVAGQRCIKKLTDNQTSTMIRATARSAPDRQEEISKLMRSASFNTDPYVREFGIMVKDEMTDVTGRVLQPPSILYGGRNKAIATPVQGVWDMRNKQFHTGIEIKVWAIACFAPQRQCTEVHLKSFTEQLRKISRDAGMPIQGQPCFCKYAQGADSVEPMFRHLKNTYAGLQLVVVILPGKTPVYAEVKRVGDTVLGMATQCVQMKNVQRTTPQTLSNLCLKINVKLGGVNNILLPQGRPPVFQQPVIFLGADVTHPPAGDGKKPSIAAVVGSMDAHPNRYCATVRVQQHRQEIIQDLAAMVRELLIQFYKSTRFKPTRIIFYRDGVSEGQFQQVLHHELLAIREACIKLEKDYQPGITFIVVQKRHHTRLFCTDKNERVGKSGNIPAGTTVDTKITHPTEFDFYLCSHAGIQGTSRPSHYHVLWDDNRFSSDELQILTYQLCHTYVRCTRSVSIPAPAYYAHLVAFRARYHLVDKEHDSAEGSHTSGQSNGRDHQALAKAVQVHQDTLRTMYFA

Q: For “Nef-EYFP fusion protein (natural protein)”, which slicer assay: cleavage of 32P-labelled let-7a RNA by Ago2 immunoprecipitates from U937/Nef-EYFP cells compared to U937/EYFP cells [1] is on record?
A: < 50%

Q: How did the RLuc-let7a reporter luciferase activity against the empty vector, U937 or HEK293T cells co-transfected with the Nef expression vector [2] turn out when wild type Nef (natural protein) was run?
A: 70%
